Laboratory results: paper PMC3416860, “TC10 Is Regulated by Caveolin in 3T3-L1 Adipocytes” (PLoS ONE, 2012)

What was measured:
GST-TC10 [1] = target: T1, GST-TC10 (Homo sapiens, UniProt P17081); experiment: radioligand binding to GST-fusion on glutathione-agarose; conditions: 10 mM MgCl2, pH 7.5, room temperature, labelled compound
T1 construct: gene RHOQ; GST fusion (GST kept), expressed in E. coli Rosetta-gami (DE3), glutathione-agarose purified; plasmid from I. Macara

[2] = target: myc-Caveolin 1 wild-type (pKMyc-Caveolin 1) (UniProt Q03135); experiment: co-IP; COS-1 cells co-transfected with myc-Caveolin 1 and HA-TC10 plasmids; lysed in HNTG buffer (50 mM HEPES pH 7.4, 150 mM NaCl, 10% glycerol, 1% Triton X-100); immunoprecipitated with anti-myc antibodies and Protein A/G beads, blotted for HA
GST-TC10 [3] = target: T2, GST-TC10 (human, UniProt P17081 1-205); experiment: pull-down; GST-TC10 on glutathione-agarose beads, preincubated with nucleotides as indicated (GDP or a nonhydrolyzable GTP analog), used to precipitate proteins from a 3T3-L1 adipocyte lysate; blot with anti-Caveolin antibodies; conditions: one partner purified
T2 construct: TC10 (RhoQ); Expression plasmid obtained from Dr. Ian Macara; Used as purified (with endogenous GDP) or preincubated with GDP or a nonhydrolyzable GTP analog; also called TC10-GDP; source: E. coli Rosetta-gami (DE3), purified (glutathione-agarose)

GST-TC10 [4] = target: T2, GST-TC10; experiment: pull-down; purified MBP-Caveolin 1(1-99) and GST-TC10 incubated with GDP overnight at 4 C; glutathione agarose 1 h, washed, eluted in SDS sample buffer; blots with anti-GST or anti-MBP; conditions: both partners purified

T2 sequence (P17081 whole entry): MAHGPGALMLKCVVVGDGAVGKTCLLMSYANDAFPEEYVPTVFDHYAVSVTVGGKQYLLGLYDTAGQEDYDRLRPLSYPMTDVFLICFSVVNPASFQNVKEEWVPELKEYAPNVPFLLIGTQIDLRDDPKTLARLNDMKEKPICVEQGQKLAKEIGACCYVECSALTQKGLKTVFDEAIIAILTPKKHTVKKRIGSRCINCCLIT
T1 sequence (P17081 whole entry, the tested form may be a part): as the sequence (P17081 whole entry) above

Nc1nc2c(ncn2[C@@H]2O[C@H](COP(=O)(O)OP(=O)(O)OP(O)(O)=S)[C@@H](O)[C@H]2O)c(=O)[nH]1 [GTPγS]
radioligand binding to GST-fusion on glutathione-agarose (GST-TC10 [1]): incubated radiolabeled GTPγS with recombinant GST, GST-TC10 or GST-Cdc42

HA-TC10 T31N (pKH3-TC10 T31N), dominant-interfering mutant (natural protein)
fold interaction against the constitutively active allele (Q75L) [2]: > 10 fold

HA-TC10 Y37A/Y46A (pKH3-TC10 Y37A/Y46A) (natural protein)
percent decrease of co-immunoprecipitation against wild-type TC10 [2]: > 75%

B1: Caveolin 1, endogenous in 3T3-L1 adipocytes (natural protein, mouse (endogenous in 3T3-L1), UniProt P49817 1-178, looked up)
chain: MSGGKYVDSEGHLYTVPIREQGNIYKPNNKAMADEVTEKQVYDAHTKEIDLVNRDPKHLNDDVVKIDFEDVIAEPEGTHSFDGIWKASFTTFTVTKYWFYRLLSTIFGIPMALIWGIYFAILSFLHIWAVVPCIKSFLIEIQCISRVYSIYVHTFCDPLFEAIGKIFSNIRISTQKEI
notes: Caveolin 1, endogenous, detected with anti-Caveolin antibodies; source: endogenous, 3T3-L1 adipocyte lysate
fold enhancement of the interaction after GDP binding (GST-TC10 [3]): ~2 fold

B2: MBP-Caveolin 1(1-99) (domain or fragment, UniProt Q03135 1-99, looked up)
chain: MSGGKYVDSEGHLYTVPIREQGNIYKPNNKAMADELSEKQVYDAHTKEIDLVNRDPKHLNDDVVKIDFEDVIAEPEGTHSFDGIWKASFTTFTVTKYWF
notes: Caveolin 1, the first 99 amino acids; The vector may add further tags and a TEV site; source: E. coli Rosetta-gami (DE3), purified (amylose resin)
fold precipitated with TC10-GDP against GTP analog bound TC10 (GST-TC10 [4]): > 4 fold
